Tests used:
NSMF WT [1] = target: T1, NSMF WT (UniProt Q6X4W1 1-530); assay: EMSA; up to 3000 nM NSMF; EMSA: 50 mM Tris-HCl pH 7.5, 50 mM NaCl, 1 mM DTT, 0.01% Tween-20, 23°C, 10 nM labeled DNA; NSMF-DNA gels 1.5% agarose in 1xTBE at 4°C; conditions: protein: recombinant; tags: N-term 3xFLAG, C-term 10xHis (MBP cleaved); label: Cy3 on Oligo1, Cy5 on RNA oligo; bubble 1:2, RNA strand 3 paired to strand 2 in bubble
T1 sequence: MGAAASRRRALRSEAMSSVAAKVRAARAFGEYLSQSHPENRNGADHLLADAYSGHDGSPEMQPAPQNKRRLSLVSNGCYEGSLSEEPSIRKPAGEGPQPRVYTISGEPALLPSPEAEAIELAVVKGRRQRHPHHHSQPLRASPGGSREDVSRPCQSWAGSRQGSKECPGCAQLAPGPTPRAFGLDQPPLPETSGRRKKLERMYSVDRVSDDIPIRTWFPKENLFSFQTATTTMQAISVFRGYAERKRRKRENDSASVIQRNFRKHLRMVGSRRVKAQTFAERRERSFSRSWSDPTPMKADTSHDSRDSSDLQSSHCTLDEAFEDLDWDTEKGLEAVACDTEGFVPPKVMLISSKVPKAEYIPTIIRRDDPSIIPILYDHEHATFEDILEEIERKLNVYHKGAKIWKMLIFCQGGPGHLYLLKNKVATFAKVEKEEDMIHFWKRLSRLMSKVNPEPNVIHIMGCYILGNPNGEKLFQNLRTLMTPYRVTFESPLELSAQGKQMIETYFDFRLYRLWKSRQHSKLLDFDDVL

NSMF WT [2] = target: T1, NSMF WT; assay: EMSA; low affinity; EMSA: 50 mM Tris-HCl pH 7.5, 50 mM NaCl, 1 mM DTT, 0.01% Tween-20, 23°C, 10 nM labeled DNA; NSMF-DNA gels 1.5% agarose in 1xTBE at 4°C; conditions: protein: recombinant, tags: N-term 3xFLAG, C-term 10xHis (MBP cleaved)
[3] = target: T2, RPA heterotrimer WT (RPA70/RPA32/RPA14) (human, UniProt P27694;P15927;P35244 1-616;1-270;1-121); assay: EMSA; two shifted bands up to 150 nM RPA; EMSA: 50 mM Tris-HCl pH 7.5, 50 mM NaCl, 1 mM DTT, 0.01% Tween-20, 23°C, 10 nM labeled DNA; NSMF-DNA gels 1.5% agarose in 1xTBE at 4°C; conditions: protein: recombinant; tags: untagged; 7xHis version also made; copies: 1;1;1; label: 5' Cy5
T2 sequence (P27694 whole entry, chain 1 of 3): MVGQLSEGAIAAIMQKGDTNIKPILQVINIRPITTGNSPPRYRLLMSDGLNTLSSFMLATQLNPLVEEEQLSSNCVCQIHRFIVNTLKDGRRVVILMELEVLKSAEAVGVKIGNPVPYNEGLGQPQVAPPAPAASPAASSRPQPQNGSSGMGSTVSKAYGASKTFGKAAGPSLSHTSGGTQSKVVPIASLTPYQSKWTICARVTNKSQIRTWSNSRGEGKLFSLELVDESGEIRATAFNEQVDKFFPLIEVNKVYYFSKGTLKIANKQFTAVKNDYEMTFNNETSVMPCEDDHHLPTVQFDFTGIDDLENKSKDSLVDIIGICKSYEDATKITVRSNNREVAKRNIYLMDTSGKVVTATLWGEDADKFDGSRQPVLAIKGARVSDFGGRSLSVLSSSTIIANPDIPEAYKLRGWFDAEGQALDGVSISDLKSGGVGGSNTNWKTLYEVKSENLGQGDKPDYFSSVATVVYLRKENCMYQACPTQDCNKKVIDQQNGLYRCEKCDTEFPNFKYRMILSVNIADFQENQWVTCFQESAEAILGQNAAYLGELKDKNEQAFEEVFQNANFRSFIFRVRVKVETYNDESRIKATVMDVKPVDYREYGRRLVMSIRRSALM
T2 sequence (P15927 whole entry, chain 2 of 3): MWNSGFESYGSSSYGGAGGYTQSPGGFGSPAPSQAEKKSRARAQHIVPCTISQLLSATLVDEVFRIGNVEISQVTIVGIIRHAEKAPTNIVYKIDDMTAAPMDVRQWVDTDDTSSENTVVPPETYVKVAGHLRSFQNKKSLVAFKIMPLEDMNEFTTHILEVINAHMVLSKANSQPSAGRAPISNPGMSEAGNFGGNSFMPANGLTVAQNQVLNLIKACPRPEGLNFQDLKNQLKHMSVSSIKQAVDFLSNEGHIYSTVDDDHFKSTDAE
T2 sequence (P35244 whole entry, chain 3 of 3): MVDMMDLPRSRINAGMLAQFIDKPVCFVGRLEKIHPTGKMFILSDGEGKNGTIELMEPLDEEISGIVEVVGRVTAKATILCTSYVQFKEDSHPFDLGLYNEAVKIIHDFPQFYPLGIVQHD

DBM-RPA = DBM-RPA (human, UniProt P27694;P15927;P35244 1-616;1-270;1-121, W107A;F135A;RPA32); assay: EMSA; 25 nM; single molecule bound; EMSA: 50 mM Tris-HCl pH 7.5, 50 mM NaCl, 1 mM DTT, 0.01% Tween-20, 23°C, 10 nM labeled DNA; NSMF-DNA gels 1.5% agarose in 1xTBE at 4°C; conditions: protein: recombinant; copies: 1;1;1; label: 5' Cy5
Sequence of DBM-RPA (P27694 whole entry, stated change not applied, chain 1 of 3): as the sequence (P27694 whole entry, chain 1 of 3) above
Sequence of DBM-RPA (P15927 whole entry W107A/F135A, chain 2 of 3): as the sequence (P15927 whole entry, chain 2 of 3) above, with W107A, F135A counted along it
Sequence of DBM-RPA (P35244 whole entry, stated change not applied, chain 3 of 3): as the sequence (P35244 whole entry, chain 3 of 3) above

pmRPA-S33D [4] = target: T3, pmRPA-S33D (human, UniProt P27694;P15927;P35244 1-616;1-270;1-121, S33D;RPA32); assay: EMSA; one shifted band; EMSA: 50 mM Tris-HCl pH 7.5, 50 mM NaCl, 1 mM DTT, 0.01% Tween-20, 23°C, 10 nM labeled DNA; NSMF-DNA gels 1.5% agarose in 1xTBE at 4°C; conditions: protein: recombinant; tags: 7xHis; copies: 1;1;1; label: 5' Cy5
T3 sequence (P27694 whole entry, stated change not applied, chain 1 of 3): as the sequence (P27694 whole entry, chain 1 of 3) above
T3 sequence (P15927 whole entry S33D, chain 2 of 3): as the sequence (P15927 whole entry, chain 2 of 3) above, with S33D counted along it
T3 sequence (P35244 whole entry, stated change not applied, chain 3 of 3): as the sequence (P35244 whole entry, chain 3 of 3) above

[5] = target: T2, RPA heterotrimer WT (RPA70/RPA32/RPA14); assay: EMSA; three shifted bands; EMSA: 50 mM Tris-HCl pH 7.5, 50 mM NaCl, 1 mM DTT, 0.01% Tween-20, 23°C, 10 nM labeled DNA; NSMF-DNA gels 1.5% agarose in 1xTBE at 4°C; conditions: protein: recombinant; tags: untagged; 7xHis version also made; copies: 1;1;1; label: 5' Cy5
pmRPA-S33D [6] = target: T3, pmRPA-S33D; assay: EMSA; two shifted bands; EMSA: 50 mM Tris-HCl pH 7.5, 50 mM NaCl, 1 mM DTT, 0.01% Tween-20, 23°C, 10 nM labeled DNA; NSMF-DNA gels 1.5% agarose in 1xTBE at 4°C; conditions: protein: recombinant; tags: 7xHis; copies: 1;1;1; label: 5' Cy5
RPA-eGFP heterotrimer [7] = target: T4, RPA-eGFP heterotrimer (human, UniProt P27694;P15927;P35244 1-616;1-270;1-121); assay: single-molecule photobleaching; three steps predominant; EMSA: 50 mM Tris-HCl pH 7.5, 50 mM NaCl, 1 mM DTT, 0.01% Tween-20, 23°C, 10 nM labeled DNA; NSMF-DNA gels 1.5% agarose in 1xTBE at 4°C; conditions: protein: recombinant; tags: 6xHis; eGFP at C-term of RPA70; copies: 1;1;1; label: 5' biotin
T4 sequence (P27694 whole entry, chain 1 of 3): as the sequence (P27694 whole entry, chain 1 of 3) above
T4 sequence (P15927 whole entry, chain 2 of 3): as the sequence (P15927 whole entry, chain 2 of 3) above
T4 sequence (P35244 whole entry, chain 3 of 3): as the sequence (P35244 whole entry, chain 3 of 3) above

RPA-eGFP heterotrimer [8] = target: T4, RPA-eGFP heterotrimer; assay: single-molecule photobleaching; two steps predominant; EMSA: 50 mM Tris-HCl pH 7.5, 50 mM NaCl, 1 mM DTT, 0.01% Tween-20, 23°C, 10 nM labeled DNA; NSMF-DNA gels 1.5% agarose in 1xTBE at 4°C; conditions: protein: recombinant; tags: 6xHis; eGFP at C-term of RPA70; copies: 1;1;1; label: 5' biotin
[9] = target: T2, RPA heterotrimer WT (RPA70/RPA32/RPA14); assay: EMSA; single shifted band; EMSA: 50 mM Tris-HCl pH 7.5, 50 mM NaCl, 1 mM DTT, 0.01% Tween-20, 23°C, 10 nM labeled DNA; NSMF-DNA gels 1.5% agarose in 1xTBE at 4°C; conditions: protein: recombinant; tags: untagged; 7xHis version also made; copies: 1;1;1; label: 5' Cy5
RPA-eGFP heterotrimer [10] = target: T4, RPA-eGFP heterotrimer; assay: single-molecule fluorescence; EMSA: 50 mM Tris-HCl pH 7.5, 50 mM NaCl, 1 mM DTT, 0.01% Tween-20, 23°C, 10 nM labeled DNA; NSMF-DNA gels 1.5% agarose in 1xTBE at 4°C; conditions: protein: recombinant; tags: 6xHis; eGFP at C-term of RPA70; copies: 1;1;1; label: 5' biotin

B1: R-loop (mixed)
DNA 1: GCCAGGGACGAGGTGAACCTGCAGGTGGGCGGCTACTACTTAGATGTCATCCGAGGCTTATTGGTAGAATTCGGCAGCGTCATGCGACGGC
DNA 2: GCCGTCGCATGACGCTGCCGAATTCTACCACGCGATTCATACCTGTCGTGCCAGCTGCTTTGCCCACCTGCAGGTTCACCTCGTCCCTGGC
RNA: GCAGCUGGCACGACAGGUAUGAAUC
B1: no binding (NSMF WT [1]).

B2: PTJ (primer-template junction) (mixed)
DNA 1: TGGCGACGGCAGCGAGGCAGGTCAGGAATTCTGATC
DNA 2: GATCAGAATTCCTGACCT
B2: binds (NSMF WT [2]; 18 bp duplex, 5' overhang 18 nt on strand 1).

TTTTTTTTTTTTTTTTTTTTTTTTTTTTTT (ssDNA) [30-nt ssDNA (dT30)]: binds [3]; binds (DBM-RPA); binds (pmRPA-S33D [4]).

B3: 60-nt ssDNA (ssDNA)
DNA: TATTCATTGTTTTACCTATTGTACCTTATTCTTAATTCATTTTACTAATCATTTACGAGT
B3: binds [5]; binds (pmRPA-S33D [6]).

B4: Biotinylated 60-nt ssDNA (ssDNA)
DNA: TATTCATTGTTTTACCTATTGTACCTTATTCTTAATTCATTTTACTAATCATTTACGAGT
B4: binds (RPA-eGFP heterotrimer [7]).

TTTTTTTTTTTTTTTTTTTTTTTTTTTTTT (ssDNA) [Biotinylated 30-nt ssDNA]: binds (RPA-eGFP heterotrimer [8]).

TTTTTTTTTTTTTT (ssDNA) [14-nt ssDNA (dT14)]: binds [9].

B5: Fork (Y-shape) (mixed)
DNA 1: GCCAGGGACGAGGTGAACCTGCAGGTGGGCGGCTACTACTTTTTTTTTTTTTTTTTTTTTTTTTTTTTTTTTTTTTTTT
DNA 2: TTTTTTTTTTTTTTTTTTTTTTTTTTTTTTTTTTTTTTTAGTAGTAGCCGCCCACCTGCAGGTTCACCTCGTCCCTGGC
B5: binds (NSMF WT [2]; label: 5' Cy5 on strand 1, fork 1:2, two poly-dT arms).

TTTTTTTTTTTTTT (ssDNA) [Biotinylated 14-nt ssDNA]: binds (RPA-eGFP heterotrimer [10]).

— publication PMC10450186
